Molecular target: JAK2 immunoprecipitated from BMMC lysates (tyrosine-phosphorylated), Q62120
Sequence (Q62120 whole entry): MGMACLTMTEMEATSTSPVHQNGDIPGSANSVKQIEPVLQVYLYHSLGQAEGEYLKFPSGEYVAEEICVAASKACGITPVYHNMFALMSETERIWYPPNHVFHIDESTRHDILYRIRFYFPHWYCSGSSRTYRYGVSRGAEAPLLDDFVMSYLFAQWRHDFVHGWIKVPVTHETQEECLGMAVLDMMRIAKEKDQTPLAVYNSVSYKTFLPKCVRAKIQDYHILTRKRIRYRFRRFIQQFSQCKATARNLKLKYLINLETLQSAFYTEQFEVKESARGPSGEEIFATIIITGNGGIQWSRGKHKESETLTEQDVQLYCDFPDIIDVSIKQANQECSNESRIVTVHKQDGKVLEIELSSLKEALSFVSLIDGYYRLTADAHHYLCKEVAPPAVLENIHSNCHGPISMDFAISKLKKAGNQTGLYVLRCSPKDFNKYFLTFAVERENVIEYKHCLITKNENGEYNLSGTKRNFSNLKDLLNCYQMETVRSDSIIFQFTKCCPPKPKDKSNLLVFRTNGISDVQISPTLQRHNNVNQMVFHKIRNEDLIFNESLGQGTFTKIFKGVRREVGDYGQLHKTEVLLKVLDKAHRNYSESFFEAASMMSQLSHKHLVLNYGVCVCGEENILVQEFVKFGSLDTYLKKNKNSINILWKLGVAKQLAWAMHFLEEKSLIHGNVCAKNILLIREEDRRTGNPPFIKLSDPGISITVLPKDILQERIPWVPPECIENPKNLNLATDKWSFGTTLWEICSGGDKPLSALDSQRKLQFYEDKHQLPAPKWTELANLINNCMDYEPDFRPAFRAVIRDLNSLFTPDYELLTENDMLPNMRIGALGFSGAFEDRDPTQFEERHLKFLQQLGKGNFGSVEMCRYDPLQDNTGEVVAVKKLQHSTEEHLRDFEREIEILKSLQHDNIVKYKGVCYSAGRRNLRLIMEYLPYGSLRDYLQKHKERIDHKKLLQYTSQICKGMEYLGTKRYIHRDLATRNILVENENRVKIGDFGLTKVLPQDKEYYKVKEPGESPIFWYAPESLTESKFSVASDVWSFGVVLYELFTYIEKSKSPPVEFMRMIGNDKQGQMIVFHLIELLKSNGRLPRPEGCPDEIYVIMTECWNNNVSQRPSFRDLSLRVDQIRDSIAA

B1: human non-receptor tyrosine PTPase TC-PTP (protein)
chain: MPTTIEREFEELDTQRRWQPLYLEIRNESHDYPHRVAKFPENRNRNRYRDVSPYDHSRVKLQNAENDYINASLVDIEEAQRSYILTQGPLPNTCCHFWLMVWQQKTKAVVMLNRIVEKESVKCAQYWPTDDQEMLFKETGFSVKLLSEDVKSYYTVHLLQLENINSGETRTISHFHYTTWPDFGVPESPASFLNFLFKVRESGSLNPDHGPAVIHCSAGIGRSGTFSLVDTCLVLMEKGDDINIKQVLLNMRKYRMGLIQTPDQLRFSYMAIIEGAKCIKGDSSIQKRWKELSKEDLSPAFDHSPNKIMTEKYNGNR
tyrosine dephosphorylation in vitro (phosphatase assay): the human non-receptor tyrosine PTPase TC-PTP and the bacterial lambda PTPase did not dephosphorylate JAK2 in vitro

B2: bacterial lambda PTPase (protein)
chain: MRYYEKIDGSKYRNIWVVGDLHGCYTNLMNKLDTIGFDNKKDLLISVGDLVDRGAENVECLELITFPWFRAVRGNHEQMMIDGLSERGNVNHWLLNGGGWFFNLDYDKEILAKALAHKADELPLIIELVSKDKKYVICHADYPFDEYEFGKPVDHQQVIWNRERISNSQNGIVKEIKGADTFIFGHTPAVKPLKFANQMYIDTGAVFCGNLTLIQVQGEGA
tyrosine dephosphorylation in vitro (phosphatase assay): the human non-receptor tyrosine PTPase TC-PTP and the bacterial lambda PTPase did not dephosphorylate JAK2 in vitro

Source: patent US20030175270
